The values below come from patent US20040132641A1 (University of Pennsylvania, published 2004).

Positions of bridges follow the written chain, without caps; N, C: chain ends. No end group written: not given here.

In test [1] the target is T1, Human recombinant TNF-receptor (I) extracellular domain-IgGFc fusion protein (TNFRI-Fc) (human, UniProt P19438 30-211).
T1 construct: extracellular domain; not shown: IgG Fc
T1 sequence (looked up): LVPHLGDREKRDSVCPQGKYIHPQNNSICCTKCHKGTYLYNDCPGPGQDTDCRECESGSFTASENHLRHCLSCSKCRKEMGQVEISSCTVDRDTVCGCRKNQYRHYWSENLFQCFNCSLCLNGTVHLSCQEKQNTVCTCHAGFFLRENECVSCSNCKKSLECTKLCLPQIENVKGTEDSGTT
Nature of the test: SPR (BIAcore), target immobilised on sensor chip. As for the experimental part:
(§1) To assess the specificity of Kp7-6 binding interaction, Fas, FasL and TNFα were immobilized on a sensor chip. Kp7-6 bound to FasL but not to TNFα, which indicates Kp7-6 bound to FasL specifically (FIG. 3B). Kp7-6 also bound to Fas (FIG. 3B). […] (Naismith, J. H. et al. Structure 4, 1251-1262 (1996)). […] No significant binding to TNF-R was detected.
(§2) Biosensor analysis. All experiments were carried out on a BIAcore 3000 instrument (Biacore A G, Uppsala, Sweden) at 25° C. using PBS, pH 7.4, containing 0.005% surfactant P20 (Biacore A G) as the running buffer. FasL-Flag, Fas-Fc or TNFRI-Fc was immobilized on research-grade CM5 sensor chips (Biacore AG) using standard N-ethyl-N-dimethylaminopropyl carbodiimid/N-hydroxysuccinimide coupling. Immobilization was performed in 10 mM sodium acetate buffer at pH 4.5 for FasL-Flag and Fas-Fc, and at pH 4.0 for TNFRI-Fc. After coupling, excess N-hydroxysuccinimide groups were inactivated with ethanolamine. For binding studies, about 1500 resonance units (RU) of FasL-Flag, Fas-Fc and TNFRI-Fc were coupled to the chips. Surface plasmon resonance (SPR) measurements were carried out at a flow rate of 20 ml min⁻¹. Data were analyzed with the BIA evaluation 3.0 software (Biacore AG). The sensograms give values for the relative response in resonance units (RU) after background subtraction versus time in seconds. […]

Test [2] addresses T2, Flag-tagged soluble human Fas ligand (FasL-Flag) (human, UniProt P48023 103-281, limits assumed).
T2 construct: Bought from Kamiya Biomedical; also called soluble FasL-Flag fusion protein; not shown: Flag tag
T2 sequence (looked up): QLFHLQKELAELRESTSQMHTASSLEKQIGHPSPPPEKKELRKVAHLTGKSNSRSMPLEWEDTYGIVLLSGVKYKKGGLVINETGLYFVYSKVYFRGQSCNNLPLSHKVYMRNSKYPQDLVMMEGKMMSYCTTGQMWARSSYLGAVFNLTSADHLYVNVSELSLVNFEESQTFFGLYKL
Nature of the test: SPR (BIAcore), FasL-Flag immobilised, Kp7-6 in solution. As for the experimental part: (§3) The kinetics of binding of Kp7-6, which mediated the best inhibitory activity to FasL, was performed using surface plasmon resonance (BIAcore™) analysis. FasL-Flag was immobilized onto a sensor chip and various solutions containing different concentrations of Kp7-6 were passed over the surface. […] The koff value is considered as an important indicator in the development of therapeutics with biological activity (Benveniste, M. et al. Br J Pharmacol 104, 207-221 (1991); Yiallouros, I. et al. Biochem J 331, 375-379 (1998)), and generally correlates with potent biological effects. (Moosmayer, D. et al. J Interferon Cytokine Res 16, 471-477 (1996)). […] (Berezov, A. et al. J Med Chem 44, 2565-2574 (2001)).
as §2, with “For binding studies, about 1500 resonance units (RU) of FasL-Flag, Fas-Fc and TNFRI-Fc were coupled to the chips. Surface plasmon resonance (SPR) measurements were carried out at a flow rate of 20 ml min⁻¹.” left out, “AG).” for “AG). The sensograms give values for the relative response in resonance units (RU) after background subtraction versus time in seconds.”
On the technique in general: Surface plasmon resonance follows binding to a sensor surface in real time, without labels.

The target in test [3] is T3, human Fas extra cellular domain-IgGFc fusion protein (Fas-Fc) (human, UniProt P25445 26-173).
T3 construct: extracellular domain; Bought from Kamiya Biomedical; also called soluble Fas receptor; not shown: IgG Fc
T3 sequence (looked up): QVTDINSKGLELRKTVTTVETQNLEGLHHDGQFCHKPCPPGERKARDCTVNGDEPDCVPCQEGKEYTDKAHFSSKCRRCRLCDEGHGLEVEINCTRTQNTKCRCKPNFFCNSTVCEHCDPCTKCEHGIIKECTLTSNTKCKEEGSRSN
Nature of the test: SPR (BIAcore 3000), Fas-Fc immobilised, Kp7-6 in flow. How it is done: as §1, §2

Test [4] deals with T2, Flag-tagged soluble human Fas ligand …. Nature of the test: SPR (BIAcore), FasL-Flag immobilised, Kp7-6 in solution; ratio of rate constants. As for the experimental part:
as §3
as §2, with “For binding studies, about 1500 resonance units (RU) of FasL-Flag, Fas-Fc and TNFRI-Fc were coupled to the chips. Surface plasmon resonance (SPR) measurements were carried out at a flow rate of 20 ml min⁻¹.” left out, “AG).” for “AG). The sensograms give values for the relative response in resonance units (RU) after background subtraction versus time in seconds.”

The target in a further test is T4, Human recombinant TNFα (human, UniProt P01375 77-233).
T4 construct: Bought from Roche Diagnostics
T4 sequence (P01375 77-233 limits assumed): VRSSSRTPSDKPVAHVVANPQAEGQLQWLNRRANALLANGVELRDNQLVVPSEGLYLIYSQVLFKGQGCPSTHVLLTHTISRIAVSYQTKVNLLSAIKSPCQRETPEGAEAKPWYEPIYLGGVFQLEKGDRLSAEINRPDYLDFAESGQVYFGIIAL
Nature of the test: SPR (BIAcore 3000), TNFα immobilised, Kp7-6 in flow; peptide concentration not given.

In test [5] the target is T2, Flag-tagged soluble human Fas ligand …. Nature of the test: solid phase ligand binding assay; peptide preincubated with FasL-Flag, inhibition of binding to immobilised Fas-Fc. How it is done:
To compare the inhibitory activities of the Kp7 peptide series, dose-response studies were performed. The best activity was found with Kp7-6, which inhibited 50% of the FasL-Flag molecule binding to immobilized Fas-Fc at 150 μM (FIG. 2B).
Solid phase ligand binding assay. Fas-Fc fusion protein (250 ng/ml) diluted in PBS was immobilized onto 96 well ELISA plate (Costar, High Wycombe, UK) by incubating overnight at 4° C. After blocking with PBS containing 1% skim milk overnight at 4° C. and subsequent washing with PBS containing 0.05% Tween 20 (PBS-Tw), Flag-tagged soluble FasL (100 ng/ml)/peptide solution preincubated in PBS containing 1% skim milk for 1 h at 37° C. was added onto the Fas-Fc coated wells. After 2 h incubation at room temperature, the plate was washed with PBS-Tw, and anti-FLAG(M2)-HRP antibody 1:2500 in PBS containing 1% skim milk was added. After 1 h incubation at room temperature, the plate was washed with PBS-Tw, and the enzyme reaction was started by adding the substrate solution (0.1M sodium acetate buffer (pH 5.0) containing 100 μg/ml of TMBZ and 0.005% (v/v) H₂O₂) and stopped with 2N H₂SO₄. The absorbance at 450 nm was measured with an ELISA reader.

B1: Kp7-6 (peptide)
peptide: YCDEHFCY
modifications: disulfide 2-7
notes: Synthetic exocyclic peptide derived from the Kp7 loop of human Fas (91 CDEGHGL 97); also called Fas mimetic Kp7-6; exocyclic mimetic Kp7-6
The term koff denotes the first-order rate constant of dissociation. A low value points to a long-lived complex. In general, Kd refers to the concentration at which binding is half-saturated. As usually defined, the IC50 is the concentration needed to halve the response being measured. With B1, the binding result in test [1] is “no binding”; in test [3] it was “binds”; with Human recombinant TNFα, “no binding”. The molecule also showed an off-rate constant (koff) in test [2] of 0.000765 s⁻¹. In addition, the Kd in test [4] was determined as 11.2 µM. Besides, in test [5], the IC50 was determined as 150 µM.
